From patent publication US7365160B2, “Mutated constitutively active nuclear orphan receptor” (The United States of America as represented by the …, priority 2002, dated 2008) come the findings set out here.

One experiment addresses T1, mCAR L352A (Mus musculus, UniProt O35627, L352A).
T1 construct: mCAR and hCAR expression vectors were constructed by cloning an entire mCAR; expressed in transfected cells; host or cells: HepG2
T1 sequence (O35627 1-358 L352A): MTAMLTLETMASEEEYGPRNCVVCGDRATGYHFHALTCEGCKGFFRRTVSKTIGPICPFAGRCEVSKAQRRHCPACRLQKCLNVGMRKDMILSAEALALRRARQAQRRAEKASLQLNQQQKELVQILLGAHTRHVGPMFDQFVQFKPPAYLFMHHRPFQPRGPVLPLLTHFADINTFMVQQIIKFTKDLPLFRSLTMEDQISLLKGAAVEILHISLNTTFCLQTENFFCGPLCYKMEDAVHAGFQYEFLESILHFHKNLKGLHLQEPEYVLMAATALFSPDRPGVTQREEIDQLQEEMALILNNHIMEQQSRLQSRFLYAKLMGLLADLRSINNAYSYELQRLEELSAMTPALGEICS
Kind of experiment: luciferase reporter gene activation assay (PBREM) in HepG2 cells, mCAR L352A mutant. The format is cell-based. As to conditions: only in the presence of exogenous SRC-1. From the text:
To examine the role of Leu352 in mCAR activity, site-directed mutagenesis was used as described in EXAMPLES 2 and 6.
On the technique in general: In a reporter assay the amount or activity of a reporter protein is the signal.

The test system of experiment [1] is chimeric receptors mh159, mh224, mh315, mh345. Kind of experiment: luciferase reporter assay in HepG2 cells, chimeric receptors within the LBD. The class given is cell-based, mouse/human.
For the next experiment, the target named is T2, mCAR (Mus musculus, UniProt O35627).
T2 construct: mCAR and hCAR expression vectors were constructed by cloning an entire mCAR; expressed in transfected cells; host or cells: HepG2
T2 sequence (O35627 1-358): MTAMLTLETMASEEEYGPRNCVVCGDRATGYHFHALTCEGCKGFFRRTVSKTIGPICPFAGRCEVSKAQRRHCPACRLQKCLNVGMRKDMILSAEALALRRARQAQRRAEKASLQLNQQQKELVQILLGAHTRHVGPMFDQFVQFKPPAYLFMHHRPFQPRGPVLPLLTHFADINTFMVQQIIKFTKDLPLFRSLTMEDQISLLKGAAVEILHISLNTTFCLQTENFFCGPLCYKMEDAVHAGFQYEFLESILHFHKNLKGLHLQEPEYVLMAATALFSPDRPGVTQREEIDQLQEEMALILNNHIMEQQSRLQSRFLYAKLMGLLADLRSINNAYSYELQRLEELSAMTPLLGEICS
Kind of experiment: cell-based transfection assay, (NR1)5-tk-luciferase reporter in HepG2 cells, wild-type mCAR. As to conditions: wild-type mCAR. The text has this:
mCAR and hCAR expression vectors were constructed by cloning an entire mCAR (GenBank Accession No: AF009327, deposited on Jul. 22, 1997; SEQ ID NO: 15) or hCAR (GenBank Accession No: Z30425, deposited on Mar. 8, 1994; SEQ ID NO: 17) coding sequence into BamHI and XhoI sites of pCR3 plasmid as described previously (Sueyoshi et al., J Biol Chem 274:6043-6, 1999). Polymerase chain reaction (PCR) was used to amplify the desired hCAR or mCAR fragment from the plasmid. The amplified fragments used for the chimeras were nucleotides encoding amino acids: 1 to 86 of mCAR and 77 to 348 of hCAR (mhh), 1 to 116 of mCAR and 107 to 348 of hCAR (mmh), 1 to 76 of hCAR and 87 to 358 of mCAR (hmm), 1 to 106 of hCAR and 117 to 358 of mCAR (hhm). These fragments were PCR amplified using pfu polymerase and enzymatically phosphorylated primers. The amplified fragments were ligated, and a second PCR amplification was performed on the ligated DNA with the primers for 5′ and 3′ end of the chimeric DNA. The resulting second PCR products were cloned into a pCR3 vector (Invitrogen) with newly created BamHI and XhoI sites at the 5′ and the 3′ ends, respectively.
A mouse SRC-1 cDNA corresponding to amino acid residues 633 to 1450 of SRC-1 (GenBank Accession No: U64828), was amplified and cloned into the EcoRI and Hind III site of pcDNA3.1/myc-His(−)B plasmid (Invitrogen), thereby generating the SRC-1-expression plasmid pcDNA3.1-SRC-1. Wild-type mCAR or mCART350M was co-transfected with or without the SRC-1-expression plasmid (0.1 μg) into HepG2 cells.
The KN-62 repression was examined with and without the co-expression of SRC-1 (EXAMPLE 3).

Another experiment concerns the target T3, mCART350M (Mus musculus, UniProt O35627, T350M).
T3 construct: mCAR and hCAR expression vectors were constructed by cloning an entire mCAR; expressed in transfected cells; host or cells: HepG2
T3 sequence (O35627 1-358 T350M): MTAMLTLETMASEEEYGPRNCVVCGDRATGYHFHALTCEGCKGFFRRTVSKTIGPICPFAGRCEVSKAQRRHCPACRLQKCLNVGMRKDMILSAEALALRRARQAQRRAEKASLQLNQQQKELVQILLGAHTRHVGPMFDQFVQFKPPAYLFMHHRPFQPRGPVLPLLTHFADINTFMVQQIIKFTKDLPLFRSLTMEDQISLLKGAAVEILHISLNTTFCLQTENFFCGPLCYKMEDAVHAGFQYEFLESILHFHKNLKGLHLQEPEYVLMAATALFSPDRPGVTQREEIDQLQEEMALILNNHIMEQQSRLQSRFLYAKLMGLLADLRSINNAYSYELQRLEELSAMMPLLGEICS
Briefly: luciferase reporter assay in HepG2 cells, mutant mCART350M. The class given is cell-based.

The target of experiment [2] is mCAR T350M mutant (mouse). Kind of experiment: cell-based or functional assay.
Experiment [3] addresses wild-type mouse CAR (mCAR; nuclear orphan receptor constitutively active receptor / constitutive androstane receptor) (mouse). Briefly: cell-based or functional assay.
Experiment [4] concerns PB-responsive enhancer module (PBREM) luciferase reporter. Kind of experiment: constitutive activity of mutated CAR in luciferase reporter gene activation assay in HepG2 cells. As to conditions: mCAR mutants versus mCAR.

Experimental for mCART350M: The transfected cells were then treated, and luciferase assays performed as described in EXAMPLE 1.
To determine if this effect could be disrupted by mutating Thr350 to a Met, the mCART350M mutant described in EXAMPLE 2 was used. The KN-62 repression was examined with and without the co-expression of SRC-1 (EXAMPLE 3).

As for `CN(C)CCCN1c2ccccc2Sc2ccc(Cl)cc21` [chloropromazine], at mCAR L352A, the “activation of L352A mutant” value is recorded as “activated”.

For `CC(=O)[C@H]1CC[C@H]2[C@@H]3CCC4=CC(=O)CC[C@]4(C)[C@H]3CC[C@]12C` [progesterone], in experiment [1], the “repression of chimeric receptor activity” value is given as “None of these chimeric receptors was repressed”.

Consider `C[C@]12CC[C@H]3[C@@H](CCC4=CC(=O)CC[C@@]43C)[C@@H]1CC[C@@H]2O` [testosterone], for which, on mCAR (HepG2 cells, 24 hours treatment), the “repression of mCAR activity (luciferase reporter)” value is on record as “repressed”. Further, the “repression of mCART350M activity” value at mCART350M (HepG2 cells) is on record as “not the T350M mutant”.

With “mouse steroid receptor co-activator 1 (SRC-1), amino acid residues 633 to 1450 (from UniProt P70365 633-1447)”, the trans-activation activity (NR1-luciferase reporter gene activity in co-transfected HepG2 cells, relative to DMSO-treated cells) in experiment [2] and in experiment [3] was 3 to 4 fold throughout.

B1: SRC-1: co-activator steroid receptor co-activator 1, mouse residues 633 to 1450 expressed from pcDNA3.1-SRC-1 (protein)
chain: TSHKLVQLLTTTAEQQLRHADIDTSCKDVLSCTGTSSSASSNPSGGTCPSSHSSLTERHKILHRLLQEGSPSDITTLSVEPEKKDSVPASTAVSVSGQSQGSASIKLELDAAKKKESKDHQLLRYLLDKDEKDLRSTPNLCLDDVKVKVEKKEQMDPCNTNPTPMTKPAPEEVKLESQSQFTADLDQFDQLLPTLEKAAQLPSLCETDRMDGAVTGVSIKAEVLPASLQPTTARAAPRLSRLPELELEAIDNQFGQPGAGDQIPWANNTLTTINQNKPEDQCISSQLDELLCPPTTVEGRNDEKALLEQLVSFLSGKDETELAELDRALGIDKLVQGGGLDVLSERFPPQQATPPLMMEDRPTLYSQPYSSPSPTAGLSGPFQGMVRQKPSLGAMPVQVTPPRGTFSPNMGMQPRQTLNRPPAAPNQLRLQLQQRLQGQQQLMHQNRQAILNQFAANAPVGMNMRSGMQQQITPQPPLNAQMLAQRQRELYSQQHRQRQIIQQQRAMLMRHQSFGNNIPPSSGLPVQMGTPRLPQGAPQQFPYPPNYGTNPGTPPASTSPFSQLAANPEASLATRSSMVNRGMAGNMGGQFGAGISPQMQQNVFQYPGPGLVPQGEATFAPSLSPGSSMVPMPVPPPQSSLLQQTPPTSGYQSPDMKAWQQGTMGNNNVFSQAVQSQPAPAQPGVYNNMSITVSMAGGNANIQNMNPMMGQMQMSSLQMPGMNTVCSEQMNDPALRHTGLYCNQLSSTDLLKTDADGNQQVQQVQVFADVQCTVNLVGGDPYLNQPGPLGTQKPTSGPQTPQAQQKSLLQQLLTE
Turning to B1, the “increase of trans-activation activity by co-expression” value in the experiment with mCAR (relative to DMSO-treated cells) is 3- to 4 fold; with mCART350M (mCART350M, relative to DMSO-treated cells) it was 3- to 4 fold.

B2: T176V: mCAR with single mutation of Thr176 to valine (protein, UniProt O35627 1-358, looked up, variant T176V)
Nuclear receptor subfamily 1 …: MTAMLTLETMASEEEYGPRNCVVCGDRATGYHFHALTCEGCKGFFRRTVSKTIGPICPFAGRCEVSKAQRRHCPACRLQKCLNVGMRKDMILSAEALALRRARQAQRRAEKASLQLNQQQKELVQILLGAHTRHVGPMFDQFVQFKPPAYLFMHHRPFQPRGPVLPLLTHFADINVFMVQQIIKFTKDLPLFRSLTMEDQISLLKGAAVEILHISLNTTFCLQTENFFCGPLCYKMEDAVHAGFQYEFLESILHFHKNLKGLHLQEPEYVLMAATALFSPDRPGVTQREEIDQLQEEMALILNNHIMEQQSRLQSRFLYAKLMGLLADLRSINNAYSYELQRLEELSAMTPLLGEICS
On to B2, for which the “constitutive activity of mCAR” value in experiment [4] was “decreased”.

B3: L352A: mCAR with Ala substitution of Leu352 (protein, UniProt O35627 1-358, looked up, variant L352A)
Nuclear receptor subfamily 1 …: MTAMLTLETMASEEEYGPRNCVVCGDRATGYHFHALTCEGCKGFFRRTVSKTIGPICPFAGRCEVSKAQRRHCPACRLQKCLNVGMRKDMILSAEALALRRARQAQRRAEKASLQLNQQQKELVQILLGAHTRHVGPMFDQFVQFKPPAYLFMHHRPFQPRGPVLPLLTHFADINTFMVQQIIKFTKDLPLFRSLTMEDQISLLKGAAVEILHISLNTTFCLQTENFFCGPLCYKMEDAVHAGFQYEFLESILHFHKNLKGLHLQEPEYVLMAATALFSPDRPGVTQREEIDQLQEEMALILNNHIMEQQSRLQSRFLYAKLMGLLADLRSINNAYSYELQRLEELSAMTPALGEICS
For the molecule B3, the “constitutive activity of mCAR” value in experiment [4] is listed as “decreased”.

B4: T176L: mCAR with single mutation of Thr176 to leucine (protein, UniProt O35627 1-358, looked up, variant T176L)
Nuclear receptor subfamily 1 …: MTAMLTLETMASEEEYGPRNCVVCGDRATGYHFHALTCEGCKGFFRRTVSKTIGPICPFAGRCEVSKAQRRHCPACRLQKCLNVGMRKDMILSAEALALRRARQAQRRAEKASLQLNQQQKELVQILLGAHTRHVGPMFDQFVQFKPPAYLFMHHRPFQPRGPVLPLLTHFADINLFMVQQIIKFTKDLPLFRSLTMEDQISLLKGAAVEILHISLNTTFCLQTENFFCGPLCYKMEDAVHAGFQYEFLESILHFHKNLKGLHLQEPEYVLMAATALFSPDRPGVTQREEIDQLQEEMALILNNHIMEQQSRLQSRFLYAKLMGLLADLRSINNAYSYELQRLEELSAMTPLLGEICS
B4: in experiment [4], the “constitutive activity of mCAR” value is reported as “decreased”.
